In article PMC6783867 (2019):

B1: 10th and 11th cadherin repeat domains of the Plutella xylostella cadherin (PxCR10–11), GST-tagged (domain or fragment)
chain: QAVDLKNEGCTADAGDCYSVYYRIVSDISESFKVDAEKNIISLTRELDRADGVRHIVTVAASNQPDATDNPTNVLTVTVFVREANPRPIFENEVYTAGISTMDSINRELFTVKATRTENLSIKYTIDPSSMVADTSLQSVQGSAFELDADSGVLTLKIKPTASMRGMFEFEVIATDTEQATDRAEVKVYIVSDNNRVSFLFQNQLTQVEQYRDFIAQTLSAGFKMACNIDEVIPSTDAGGSPVEGVTEVRAHFIRDNQPVTADVIEALRSDVELLTNIQRTLNTNLLVLTDFVTDISPSVTADAARVIIYLLGALSAALALALACLVLLAAYWFRTRALNRRLEA

Experiments:
[1] = biological target: Cry2Ab–AVM bioconjugate (Cry2Ab30 conjugated with 4''-O-succinyl avermectin) (Bacillus thuringiensis, 4''-O-succinyl avermectin joined by an amide bond to amino groups of Cry2Ab30; sites and number not determined (Lys 232 named as potential site from a homology model)); assay: BLI
[2] = biological target: B1; assay: BLI

Binder | koff [1] [s⁻¹] | koff [2] [s⁻¹]
B1 | 0.000569 | 
Bacillus thuringiensis insecticidal protein (Bt toxin) Cry2Ab30 (natural protein) MNSVLNSGRTTICDAYNVAAHDPFSFQHKSLDTVQKEWTEWKKNNHSLYLDPIVGTVASFLLKKVGSLVGKRILSELRNLIFPSGSTNLMQDILRETEKFLNQRLNTDTLARVNAELTGLQANVEEFNRQVDNFLNPNRNAVPLSITSSVNTMQQLFLNRLPQFQMQGYQLLLLPLFAQAANLHLSFIRDVILNADEWGISAATLRTYRDYLKNYTRDYSNYCINTYQSAFKGLNTRLHDMLEFRTYMFLNVFEYVSIWSLFKYQSLLVSSGANLYASGSGPQQTQSFTSQDWPFLYSLFQVNSNYVLNGFSGARLSNTFPNIVGLPGSTTTHALLAARVNYSGGISSGDIGASPFNQNFNCSTFLPPLLTPFVRSWLDSGSDREGVATVTNWQTESFETTLGLRSGAFTARGNSNYFPDYFIRNISGVPLVVRNEDLRRPLHYNEIRNIASPSGTPGGARAYMVSVHNRKNNIHAVHENGSMIHLAPNDYTGFTISPIHATQVNNQTRTFISEKFGNQGDSLRFEQNNTTARYTLRGNGNSYNLYLRVSSIGNSTIRVTINGRVYTATNVNTTTNNDGVNDNGARFSDINIGNVVASSNSDVPLDINVTLNSGTQFDLMNIMLVPTNISPLY |  | 0.000567
